Test results: patent publication US11981935B2, “7β-hydroxysteroid dehydrogenase mutants and process for the preparation of ursodeoxycholic acid” (PharmaZell GmbH, priority 2010, dated 2024)

Assays:
[1] = biological target: 7β-HSDH from Collinsella aerofaciens DSM 3979 (Collinsella aerofaciens, UniProt A4ECA9); format: biochemical
[2] = biological target: T1, 7β-HSDH from Collinsella aerofaciens DSM 3979 (ATCC 25986), wild type, SEQ ID NO:2 (Collinsella aerofaciens, UniProt A4ECA9); experiment: Enzyme assay and kinetic analysis of 7β-HSDH (Lineweaver-Burk); format: biochemical; settings: pH 8, 25° C.
T1 construct: The gene coding for 7β-HSDH was once again amplified from the genomic DNA by PCR; made in house; host or cells: E. coli BL21(DE3), pET-28a(+)
T1 sequence (A4ECA9 1-263): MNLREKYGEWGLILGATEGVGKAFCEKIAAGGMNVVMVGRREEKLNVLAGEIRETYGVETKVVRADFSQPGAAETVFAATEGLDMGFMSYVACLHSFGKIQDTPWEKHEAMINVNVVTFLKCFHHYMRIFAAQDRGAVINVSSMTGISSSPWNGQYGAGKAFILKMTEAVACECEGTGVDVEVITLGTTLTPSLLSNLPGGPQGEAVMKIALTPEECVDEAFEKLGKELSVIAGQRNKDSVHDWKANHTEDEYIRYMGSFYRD

[3] = biological target: T2, Collinsella aerofaciens 7β-HSDH mutant G39S (parent SEQ ID NO:2) (Collinsella aerofaciens, UniProt A4ECA9, G39S); experiment: Kinetic measurements of 7β-HSDH variants (microtiter plate photometer, cell lysate); settings: 100 μM NADPH, varied DHCA, Michaelis-Menten model with substrate inhibition
T2 sequence (A4ECA9 1-263 G39S): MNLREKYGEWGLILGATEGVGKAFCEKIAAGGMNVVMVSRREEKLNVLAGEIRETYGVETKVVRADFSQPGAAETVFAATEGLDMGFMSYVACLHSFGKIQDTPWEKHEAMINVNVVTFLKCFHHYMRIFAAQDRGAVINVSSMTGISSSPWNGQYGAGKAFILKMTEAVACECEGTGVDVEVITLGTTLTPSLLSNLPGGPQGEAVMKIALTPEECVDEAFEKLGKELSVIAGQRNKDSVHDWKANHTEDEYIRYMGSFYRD

[4] = biological target: T3, 7β-HSDH from Collinsella aerofaciens, wild type (WT), SEQ ID NO:2 (Collinsella aerofaciens, UniProt A4ECA9); experiment: as above; settings: 100 μM NADPH, varied DHCA, Michaelis-Menten model with substrate inhibition
T3 sequence (A4ECA9 1-263): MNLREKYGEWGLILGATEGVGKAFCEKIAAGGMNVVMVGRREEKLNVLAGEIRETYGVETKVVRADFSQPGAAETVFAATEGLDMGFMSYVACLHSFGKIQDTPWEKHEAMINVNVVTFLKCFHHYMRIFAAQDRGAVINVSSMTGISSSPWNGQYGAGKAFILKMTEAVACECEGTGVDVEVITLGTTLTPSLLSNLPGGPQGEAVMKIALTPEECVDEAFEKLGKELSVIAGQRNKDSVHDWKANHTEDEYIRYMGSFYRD

7β-HSDH = 7β-HSDH (Collinsella aerofaciens, UniProt A4ECA9); experiment: Photometric identification of 7β-HSDH activity (production example 1); format: biochemical, Collinsella aerofaciens ATCC 25986; settings: 0.1 mM test substance, potassium phosphate buffer 50 mM pH 8, in the presence of NADP+ or NADPH
Procedure: For identification of 7β-HSDH activity, the activity was investigated by a photometric method. In a 1 ml cuvette, enzyme and 0.1 mM of test substance (UDCA) were mixed in potassium phosphate buffer (50 mM, pH8).

[5] = biological target: T4, Collinsella aerofaciens 7β-HSDH mutant G39A (parent SEQ ID NO:2) (Collinsella aerofaciens, UniProt A4ECA9, G39A); experiment: Kinetic measurements of 7β-HSDH variants (microtiter plate photometer, cell lysate); settings: 100 μM NADPH, varied DHCA, Michaelis-Menten model with substrate inhibition
T4 sequence (A4ECA9 1-263 G39A): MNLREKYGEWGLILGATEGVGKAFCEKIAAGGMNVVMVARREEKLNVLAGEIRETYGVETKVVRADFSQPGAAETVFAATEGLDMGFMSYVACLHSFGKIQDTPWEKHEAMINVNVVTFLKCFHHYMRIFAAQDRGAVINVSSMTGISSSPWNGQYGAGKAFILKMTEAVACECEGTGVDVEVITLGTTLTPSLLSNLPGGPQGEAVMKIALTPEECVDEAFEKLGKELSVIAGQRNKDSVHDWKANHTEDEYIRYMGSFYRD
Procedure: For each of the mutants and for the wild-type enzyme, kinetic measurements were carried out in the microtiter plate photometer, recording the conversion rates of the enzymes both with constant substrate concentrations with variation of cofactor concentrations and vice versa. To determine the specific enzyme activity, the enzyme concentrations in the cell lysate were determined by densitometry.
In these measurement series, the reaction rate was determined by linear regression over the first 4 measurements (0 s-18 s).
The data obtained were evaluated with IGOR Pro. […] For this reason, the classical Michaelis-Menten model was used for evaluating the measurement series at constant substrate concentration and variation of cosubstrate concentration, and the Michaelis-Menten model with substrate inhibition was used for the measurement series with constant cosubstrate concentration and variation of substrate concentration.
vmax, Km and Ki were determined by nonlinear regression.
[formula] • v specific enzyme activity, U mg^−1=μmol min^−1 mg^−1 • vmax maximum specific enzyme activity, U mg^−1=μmol min^−1 mg^−1 • cS substrate or cofactor concentration, mol L^−1 • Km semisaturation concentration, mol L^−1 • Ki inhibition constant, mol L^−1

[6] = format: biochemical, Collinsella aerofaciens; settings: 100 μM NADPH
[7] = Preparative biotransformation of 7-keto-LCA by 7β-HSDH with ADH regeneration, HPLC; format: biochemical, Collinsella aerofaciens DSM 3979; settings: isolated enzyme with ADH and 2-propanol for NADPH regeneration, 24° C., 24 hours
[8] = Photometric activity of 7β-HSDH variants with NADPH or NADH (production example 7); format: biochemical, Collinsella aerofaciens
[9] = substrate: NC(=O)c1ccc[n+]([C@@H]2O[C@H](COP(=O)([O-])OP(=O)(O)OC[C@H]3O[C@@H](n4cnc5c(N)ncnc54)[C@H](O)[C@@H]3O)[C@@H](O)[C@H]2O)c1; experiment: Kinetic constants of FDH (characterization of the mutant D221G); format: biochemical, Mycobacterium vaccae N10; settings: 37.0 °C
Description: (§1) The following vector constructs were used • pET22b(+) 7β-HSDH: a pET22b(+) vector into which the 7β-HSDH from Collinsella aerofaciens ATCC 25986 had been cloned via the Nde I and Hind III cleavage sites in the usual way. • pET22b(+) 3α-HSDH: a pET22b(+) vector into which the 3α-HSDH from Comamonas testosteroni had been cloned via the Nde I and EcoR I cleavage sites in the usual way (Oppermann et al., J Biochem, 1996, 241(3): 744-749). • pET21a(+) FDH D221G (cf. FIG. 4a): a pET21a(+) vector into which the formate dehydrogenase from Mycobacterium vaccae N10 had been cloned via the Nde I and EcoR I cleavage sites. With site-directed mutagenesis, the aspartate residue (D) at position 221 (without taking into account methionine in position 1) or position 222 (counting from methionine in position 1; cf. SEQ ID NO: 15, 19, 35) of formate dehydrogenase was replaced with a glycine residue (cf. production example 4, below). Formate dehydrogenase carries, at position 1202 of the nucleotide sequence, a single base deletion, which leads to exchange of the last amino acid valine for an alanine. Simultaneously, this base deletion leads to switching-off of the stop codon and to activation of the His·Tag that was originally outside of the reading frame (cf. SEQ ID NO: 34 and 35). • pET21a(+) 7β-HSDH: a pET21a(+) vector, into which the 7β-HSDH from Collinsella aerofaciens ATCC 25986 had been cloned via the Nde I and Xho I cleavage sites in the usual way • pET21a(+) FDH D221G 7β-HSDH (cf. FIG. 4b) • pET21a(+) FDH 7β-HSDH(G39A) 3α-HSDH (cf. FIG. 8) • pCOLA(mod) 3α-HSDH (cf. FIG. 5) Microorganisms
(§2) The production of an FDH mutant, which can regenerate not only NADH, but also NADHP, will be explained in more detail with the mutant D221G.
(§3) This can lead to repulsion of the phosphate group in the NADP^+, which is also negatively charged. The aspartate is therefore replaced with the small uncharged amino acid residue glycine (G).
(§4) First an LB preculture was inoculated from frozen stored material or with a colony from an agar plate and the preculture was incubated overnight. Incubation was carried out at 37° C. and 250 rpm. The OD of the preculture was determined and the culture was inoculated to an OD of 0.1. On reaching an OD of 0.5-1 (after about 2.5 h), it was induced with IPTG (final concentration 1 mM). The cells were harvested three hours after induction.
(§5) The cells were disrupted mechanically with glass beads. For this, 0.5 mL of glass beads were added to 0.5 mL of cell sample in a 1.5-mL reaction vessel and the reaction vessel was shaken for 3 min at maximum frequency (30 s^−1) in a Retsch vibratory mill. After cell maceration, the glass beads were centrifuged off (2 min, 13000 rpm). Before and after maceration, the culture was put on ice, to minimize protein denaturation through heating of the sample in the vibratory mill. This maceration protocol is optimized for the use of samples frozen at −20° C.
(§6) Summary of kinetic constants of FDH at pH 6, 7 and 8.

[10] = substrate: O=CO; experiment: as above; format: biochemical, Mycobacterium vaccae N10; settings: 37.0 °C
Description: as §1, §2, §3, §4, §5, §6

[11] = substrate: NC(=O)c1ccc[n+]([C@@H]2O[C@H](COP(=O)([O-])OP(=O)(O)OC[C@H]3O[C@@H](n4cnc5c(N)ncnc54)[C@H](OP(=O)(O)O)[C@@H]3O)[C@@H](O)[C@H]2O)c1; experiment: as above; format: biochemical, Mycobacterium vaccae N10; settings: 37.0 °C
Description: as §1, §2, §3, §4, §5, §6

[12] = other: pH 6, substrate sodium formate, pH 6.0
[13] = other: pH 7, substrate sodium formate, pH 7.0
[14] = other: pH 8, substrate sodium formate, pH 8.0

Molecule: NC(=O)C1=CN([C@@H]2O[C@H](COP(=O)(O)OP(=O)(O)OC[C@H]3O[C@@H](n4cnc5c(N)ncnc54)[C@H](O)[C@@H]3O)[C@@H](O)[C@H]2O)C=CC1 [NADH]
- kcat [1]: Traces
- kcat [2]: Traces

Molecule: NC(=O)c1ccc[n+]([C@@H]2O[C@H](COP(=O)([O-])OP(=O)(O)OC[C@H]3O[C@@H](n4cnc5c(N)ncnc54)[C@H](O)[C@@H]3O)[C@@H](O)[C@H]2O)c1 [NAD^+]
- kcat [1]: Traces
- kcat [2]: Traces

Molecule: C[C@H](CCC(=O)O)[C@H]1CC[C@H]2[C@@H]3C(=O)C[C@@H]4CC(=O)CC[C@]4(C)[C@H]3CC(=O)[C@]12C [DHCA, Dehydrocholic acid]
- Vmax [1]: 28.33 U/mg protein
- kcat [1]: 875.35 1 μmol/(μmol × min)
- Vmax ([3]; listed as DCS): 20.7 ± 1.0 U/mg
- Vmax ([3]; listed as dehydrocholic acid): 20.1±1.0 U/mg
- Vmax [4]: 14.6 ± 1.0 U/mg
- Vmax ([4]; listed as DCS): 14.6 ± 1.0 U/mg
- Vmax ([4]; listed as dehydrocholic acid): 14.6±1.0 U/mg
- activity of 7β-HSDH against the test substance (7β-HSDH): 119 U/ml
- Vmax ([5]; listed as DCS): 21.0 ± 1.1 U/mg
- Vmax ([5]; listed as dehydrocholic acid): 21.0±1.1 U/mg

B1: 7β-HSDH WT: 7β-hydroxysteroid dehydrogenase from Collinsella aerofaciens ATCC 25986 (DSM 3979), SEQ ID NO:2, NADPH-dependent (protein, listed as Collinsella aerofaciens)
chain: MNLREKYGEWGLILGATEGVGKAFCEKIAAGGMNVVMVGRREEKLNVLAGEIRETYGVETKVVRADFSQPGAAETVFAATEGLDMGFMSYVACLHSFGKIQDTPWEKHEAMINVNVVTFLKCFHHYMRIFAAQDRGAVINVSSMTGISSSPWNGQYGAGKAFILKMTEAVACECEGTGVDVEVITLGTTLTPSLLSNLPGGPQGEAVMKIALTPEECVDEAFEKLGKELSVIAGQRNKDSVHDWKANHTEDEYIRYMGSFYRD
- maximum attainable enzyme activities (specific enzyme activities at the maxima of the kinetic curves) [6]: ~13 U/mg
- enzyme activity at substrate concentration of 10 mM dehydrocholic acid ([6]; 10 mM dehydrocholic acid): ~6.7 U/mg
- conversion of 7-keto-LCA to UDCA [7]: 90%
- Specific activity NADH ([8]; cofactor NADH): 0 U/mg
- Volumetric activity NADH ([8]; cofactor NADH): 0 U/ml
- Specific activity NADPH ([8]; cofactor NADPH): 5.6 U/mg
- Volumetric activity NADPH ([8]; cofactor NADPH): 134 U/ml
- residual activity (23° C., 1500 min): 20%
- activity at 30° C. lower than at 23° C. (after 400 min): about 30%
- activity loss during storage (−20° C., potassium phosphate buffer 50 mM pH 8, some months, repeated freezing and thawing): No significant activity loss

B2: Mycobacterium vaccae formate dehydrogenase (FDH) mutant D221G (= D222G of SEQ ID NO:36; SEQ ID NO: 15, 19, 35) (Mycolicibacterium vaccae; D222G) (protein)
chain: MAKVLCVLYDDPVDGYPKTYARDDLPKIDHYPGGQILPTPKAIDFTPGQLLGSVSGELGLREYLESNGHTLVVTSDKDGPDSVFERELVDADVVISQPFWPAYLTPERIAKAKNLKLALTAGIGSDHVDLQSAIDRNVTVAEVTYCNSISVAEHVVMMILSLVRNYLPSHEWARKGGWNIADCVSHAYDLEAMHVGTVAAGRIGLAVLRRLAPFDVHLHYTGRHRLPESVEKELNLTWHATREDMYPVCDVVTLNCPLHPETEHMINDETLKLFKRGAYIVNTARGKLCDRDAVARALESGRLAGYAGDVWFPQPAPKDHPWRTMPYNGMTPHISGTTLTAQARYAAGTREILECFFEGRPIRDEYLIVQGGALAGTGAHSYSKGNATGGSEEAAKFKKAAENSSSVDKLAAALEHHHHHH
notes: single-base deletion at the 3' end gives C-terminal read-through His-tag (last Val to Ala)
- Km [9, 12]: 830 µM
- Km [9, 13]: 610 µM
- Km [9, 14]: 520 µM
- Km ([10]; other: pH 6, cofactor NAD^+, pH 6.0): 46860 µM
- Km ([10]; other: pH 7, cofactor NAD^+, pH 7.0): 45560 µM
- Km ([10]; other: pH 8, cofactor NAD^+, pH 8.0): 59260 µM
- Km [11, 12]: 300 µM
- Km [11, 13]: 510 µM
- Km [11, 14]: 1010 µM
